Measurements taken from patent US20180057596A1 (AstraZeneca / MedImmune, published 2018).

T1: human IL4Rα/Fc (R and D Systems 604-4R) (human, UniProt P24394 26-231, limits assumed, biotin labelled in the assay of Example 5)
T1 construct: bought protein; also called IL-4Rα/Fc (R&D systems Cat. No. 604-4R-050); not shown: Fc part of the bought fusion
T1 sequence (looked up): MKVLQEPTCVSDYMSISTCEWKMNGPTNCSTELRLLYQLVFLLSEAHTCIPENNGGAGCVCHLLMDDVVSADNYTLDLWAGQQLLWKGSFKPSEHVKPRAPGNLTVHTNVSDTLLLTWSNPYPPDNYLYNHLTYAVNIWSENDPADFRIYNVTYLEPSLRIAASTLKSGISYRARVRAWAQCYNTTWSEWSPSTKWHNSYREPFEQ

B1: Antibody 15 scFv (scFv, V domains shown)
VH: QVQLVQSGAEVKKPGASVKVSCKASGYAFTSYYMHWARQAPGQGLEWMGIINPSGGSTSYAQKFQGRVTMTRDTSTSTVYMELSSLRSEDTAVYYCARGKWWLYNWGKGTLVTVSS
VL: QSVLTQPPSVSAAPGQKVTISCSGGSSNIGNSYVSWYQQLPGTAPKLLIYDNNKRPSGIPDRFSGSKSGTSATLAITGLQTGDEADYYCGTWDTSTHRHPLFGTGTKLTVL
notes: tested as purified scFv
B2: Antibody 18 scFv (scFv, V domains shown)
VH: QVQLVQSGAEVKKPGASVKVSCKASGYAFTSYYMHWARQAPGQGLEWMGIINPSGGSTSYAQKFQGRVTMTRDTSTSTVYMELSSLRSEDTAVYYCARGKWWWQHWGKGTLVTVSS
VL: QSVLTQPPSVSAAPGQKVTISCSGGSSNIGNSYVSWYQQLPGTAPKLLIYDNNKRPSGIPDRFSGSKSGTSATLAITGLQTGDEADYYCGTWDTSTTPMPVFGTGTKLTVL
notes: tested as purified scFv
B3: Antibody 21 scFv (scFv, V domains shown)
VH: QVQLVQSGAEVKKPGASVKVSCKASGYAFTSYYMHWARQAPGQGLEWMGIINPSGGSASYAQKFQGRVTMTRDTSTSTVYMELSSLRSEDTAVYYCARGKYWMYDWGKGTLVTVSS
VL: QSVLTQPPSVSAAPGQKVTISCSGGSSNIGNSYVSWYQQLPGTAPKLLIYDNNKRPSGIPDRFSGSKSGTSATLAITGLQTGDEAVYFCGTWDTSTVWEWPFGTGTKLTVL
notes: tested as purified scFv
B4: Antibody 16 scFv (scFv, V domains shown)
VH: QVQLVQSGAEVKKPGASVKVSCKASGYAFTSYYMHWARQAPGQGLEWMGIINPSGGSTSYAQKFQGRVTMTRDTSTSTVYMELSSLRSEDTAVYYCARGKWWLYNWGKGTLVTVSS
VL: QSVLTQPPSVSAAPGQKVTISCSGGSSNIGNSYVSWYQQLPGTAPKLLIYDNNKRPSGIPDRFSGSKSGTSATLAITGLQTGDEADYYCGTWDTSTTYHPIFGTGTKLTVL
notes: tested as purified scFv
B5: Antibody 24 scFv (scFv, V domains shown)
VH: QVQLVQSGAEVKKPGASVKVSCKASGYAFTSYYMHWARQAPGQGLEWMGIINPRGGSTSYAQKFQGRVTMTRDTSTSTVYMELSSLRSEDTAVYYCARGKYWMYDWGKGTLVTVSS
VL: QSVLTQPPSVSAAPGQKVTISCSGGSSNIGNSYVSWYQQLPGTAPKLLIYDNNKRPSGIPDRFSGSKSGTSATLAITGLQTGDEADYFCGTWDTSTVWEWPFGTGTKLTVL
notes: tested as purified scFv
B6: Antibody 25 scFv (scFv, V domains shown)
VH: QVQLVQSGAEVKKPGASVKVSCKASGYAFTSYYMHWARQAPGQGLEWMGIINPRGGSASYAQKFQGRVSMTRDTSTSTVYMELSSLRSEDTAVYYCARGKYWMYDWGKGTLVTVSS
VL: QSVLTQPPSVSAAPGQKVTISCSGGSSNIGNSYVSWYQQLPGTAPKLLIYDNNKRPSGIPDRFSGSKSGTTATLAITGLQTGDEADYYCGTWVTSTVWEWPFGTGTKLTVL
notes: tested as purified scFv
B7: Antibody 19 scFv (scFv, V domains shown)
VH: QVQLVQSGAEVKKPGASVKVSCKASGYAFTSYYMHWARQAPGQGLEWMGIINPSGGSTSYAQKFQGRVTMTRDTSTSTVYMELSSLRSEDTAVYYCARGKWWWQHWGKGTLVTVSS
VL: QSVLTQPPSVSAAPGQKVTISCSGGSSNIGNSYVSWYQQLPGTAPKLLIYDNNKRPSGIPDRFSGSKSGTSATLAITGLQTGDEADYYCGTWDTSTTYHPIFGTGTKLTVL
notes: tested as purified scFv
B8: Antibody 35 scFv (scFv, V domains shown)
VH: QVQLVQSGAEVKKPGASVKVSCKASGYAFTSYYMHWARQAPGQGLEWMGIINPSGGSTSYAQKFQGRVTMTRDTSTSTVYMELSSLRSEDTAVYYCARGKYWMYDWGKGTLVTVSS
VL: QSVLTQPPSVSAAPGQKVTISCSGGSSNIGNSYVSWYQQLPGTAPKLLIYDNNKRPSGIPDRFSGSKSGTSATLAITGLQTGDEADYYCGTWDTSPVWEWPFGTGTKLTVL
notes: tested as purified scFv
B9: Antibody 23 scFv (scFv, V domains shown)
VH: QVQLVQSGAEVRKPGASVKVSCKASGYAFTSYYMHWARQAPGQGLEWMGIINPSGGSTSYAQKFQGRVTMTRDTSTSTVYMELSSLRSEDTAVYYCARGKYWMYDWGKGTLVTVSS
VL: QSVLTQPPSVSAAPGQKVTISCSGGSSNIGNNYVSWYQQLPGTAPKLLIYDNNKRPPGIPDRFSGSKSGTSATLAITGLQTGDEADYYCGTWDTSTVWEWPFGTGTKLTVL
notes: tested as purified scFv
B10: Antibody 31 scFv (scFv, V domains shown)
VH: QVQLVQSGAEVKKPGASVKVSCKASGYAFTSYYMHWARQAPGQGLEWMGIINPSGGSTSYAQKFQGRVTMTRDTSTSTVYMELSSLRSEDTAVYYCARGKYWMYDWGKGTLVTVSS
VL: QSVLTQPPSVSAAPGQKVTISCSGGSSSIGNSYVSWYQQLPGTAPKLLIYDNNKRPSGIPDRFSGSKSGTSATLAITGLQTGDEADYYCGTWATSPVWEWPFGTGTKLTVL
notes: tested as purified scFv
B11: Antibody 27 scFv (scFv, V domains shown)
VH: QVQLVQSGAEVRKPGASVKVSCKASGYAFTSYYMHWARQAPGQGLEWMGIINPSGGSTSYAQKFQGRVTMTRDTSTSTVYMELSSLRPEDTAVYYCARGKYWMYDWGKGTQVTVSS
VL: QSVLTQPPLVSAAPGQKVTISCSGGSSNIGNSYVSWYQRLPGTAPKLLIYDNNKRPSGIPDRFSGSKSGTSATLAITGLQTGDEADYYCGTWDTSTVWEWPFGTGTKLTVL
notes: tested as purified scFv
B12: Antibody 37GL scFv (scFv, V domains shown)
VH: QVQLVQSGAEVKKPGASVKVSCKASGYAFTSYYMHWVRQAPGQGLEWMGIINPRGGSTSYAQKFQGRVTMTRDTSTSTVYMELSSLRSEDTAVYYCARGKYWMYDWGKGTLVTVSS
VL: QSVLTQPPSVSAAPGQKVTISCSGGGSSIGNSYVSWYQQLPGTAPKLLIYDNNKRPSGIPDRFSGSKSGTSATLGITGLQTGDEADYYCGTWDTSPVWEWPFGTGTKLTVL
notes: tested as purified scFv; also called NCIMB 41600
B13: Antibody 38 scFv (scFv, V domains shown)
VH: QVQLVQSGAEVKKPGASVKVSCKASGYAFTSYYMHWARQAPGQGLEWMGIINPSGGSASYAQKFQGRVTMTRDTSTSTVYMELSSLRSEDTAVYYCARGKYWMYDWGKGTLVTVSS
VL: QSVLTQPPSVSAAPGQKVTISCSGGSSNIGNSYVSWYQQLPGTAPKLLIYDNNKRPSGIPDRFSGSKSGTSATLAITGLQTGDEADYFCGTWDTSTVWEWPFGTGTKLTVL
notes: tested as purified scFv
B14: Antibody 26 scFv (scFv, V domains shown)
VH: QVQLVQSGAEVKKPGASVKVSCKASGYAFTSYYMHWARQAPGQGLEWMGIINPSGGSTSYAQKFQGRVTMTRDTSTSTVYMELSSLRSEDTAVYYCARGKYWMYDWGKGTLVTVSS
VL: QSVLTQPPSVSAAPGQKVTISCSGGSSNIGNSYVSWYQQLPGTAPKLLIYDNNKRPSGIPDRFSGSKSGTSATLAITGLQTGDEADYFCGTWDTSTVWEWPFGTGTKLTVL
notes: tested as purified scFv
B15: Antibody 24PGL scFv (scFv, V domains shown)
VH: QVQLVQSGAEVKKPGASVKVSCKASGYAFTSYYMHWVRQAPGQGLEWMGIINPRGGSTSYAQKFQGRVTMTRDTSTSTVYMELSSLRSEDTAVYYCARGKYWMYDWGKGTLVTVSS
VL: QSVLTQPPSVSAAPGQKVTISCSGGSSNIGNSYVSWYQQLPGTAPKLLIYDNNKRPSGIPDRFSGSKSGTSATLGITGLQTGDEADYFCGTWDTSTVWEWPFGTGTKLTVL
notes: tested as purified scFv
B16: Antibody 30 scFv (scFv, V domains shown)
VH: QVQLVQSGAEVKKPGASVKVSCKASGYAFTSYYMHWARQAPGQGLEWMGIINPSGGSTSYAQKFQGRVTMTRDTSTSTVYMELSSLRSEDTAVYYCARGKYWMYDWGKGTLVTVSS
VL: QSVLTQPPSVSAAPGQKVTISCSGGSSNIGNSYVSWYQRLPGAAPKLLIYDNNKRPSGIPDRFSGSKSGTSATLAITGLQTGDEADYYCGTWDTSTVWEWPFGTGTKLTVL
notes: tested as purified scFv
B17: Antibody 33 scFv (scFv, V domains shown)
VH: QVQLVQSGAEEKKPGASVKVSCKASGYAFTSYYMHWARQAPGQGLEWMGIINPSGGSTSYAQKFQGRVTMTRDTSTSTVYMELSSLRSEDTAVYYCARGKYWMYDWGKGTLVTVSS
VL: QSALTQPPSVSAAPGQKVTISCSGGSSNIGNSYVSWYQQLPGTAPKLLIYDNNKRPSGIPDRFSGSKSGTSATLAITGLQTGDEADYFCGTWDTSTVWEWPFGTGTKLTVL
notes: tested as purified scFv
B18: Antibody 28 scFv (scFv, V domains shown)
VH: QVQLVQSGAEVKKPGASVKVSCKASGYAFTSYYMHWARQAPGQGLEWMGIINPSGGSTSYAQKFQGRVTMTRDTSTSTVYMELSSLRSEDTAVYYCARGKYWMYDWGNGTLVTVSS
VL: LPVLTQPPSVSAAPGQKVTISCSGGSSSIGNSYVSWYQQLPGAAPKLLIYDNNKRPSGIPDRFSGFRSGTSATLAITGLQTGDEADYYCGTWDTSPVWEWPFGTGTKLTVL
notes: tested as purified scFv
B19: Antibody 22 scFv (scFv, V domains shown)
VH: QVQLVQSGAEVKKPGASVKVSCKASGYAFTSYYMHWARQAPGQGLEWMGIINPSGGSTSYAQKFQGRVTMTRDTSTSTVYMELSSLRSEDTAVYYCARGKYWMYDWGKGTLVTVSS
VL: QPVLTQPPSVSAAPGQKVTISCSGGSSNIGNSYVSWYQQLPGTAPKLLIYDNNKRPSGIPDRFSGSKSGTSATLAITGLQTGDEADYFCGTWDTSTVWEWPFGTGTKLTVL
notes: tested as purified scFv
B20: Antibody 37 scFv (scFv, V domains shown)
VH: QVQLVQSGAEVKKPGASVKVSCKASGYAFTSYYMHWARQAPGQGLEWMGIINPRGGSTSYAQKFQGRVAMTRDTSTSTVYMELSSLRPEDTAVYYCARGKYWMYDWGKGTLVTVSS
VL: QSVLTQPPSVSAAPGQKVTISCSGGGSSIGNSYVSWYQQLPGTAPKLLIYDNNKRPSGVPDRFSGSKSGTSATLAITGLQTGDEADYYCGTWDTSPVWEWPFGTGTKLTVL
notes: tested as purified scFv

Key:
[1] = target: T1, human IL4Rα/Fc (R and D Systems 604-4R); assay: HTRF receptor-ligand assay, purified scFv against biotinylated human IL4
[2] = target: T2, cynomolgus IL4Rα/Fc HIS6 (HEK expressed) (cynomolgus monkey); assay: HTRF receptor-ligand assay, purified scFv against biotinylated cynomolgus IL4
T2 construct: also called Cyno IL4R; cynomolgus IL-4Rα HIS Fc (in house HEK-EBNA derived); not shown: HIS6 tag
T2 sequence (chain, as listed by the source): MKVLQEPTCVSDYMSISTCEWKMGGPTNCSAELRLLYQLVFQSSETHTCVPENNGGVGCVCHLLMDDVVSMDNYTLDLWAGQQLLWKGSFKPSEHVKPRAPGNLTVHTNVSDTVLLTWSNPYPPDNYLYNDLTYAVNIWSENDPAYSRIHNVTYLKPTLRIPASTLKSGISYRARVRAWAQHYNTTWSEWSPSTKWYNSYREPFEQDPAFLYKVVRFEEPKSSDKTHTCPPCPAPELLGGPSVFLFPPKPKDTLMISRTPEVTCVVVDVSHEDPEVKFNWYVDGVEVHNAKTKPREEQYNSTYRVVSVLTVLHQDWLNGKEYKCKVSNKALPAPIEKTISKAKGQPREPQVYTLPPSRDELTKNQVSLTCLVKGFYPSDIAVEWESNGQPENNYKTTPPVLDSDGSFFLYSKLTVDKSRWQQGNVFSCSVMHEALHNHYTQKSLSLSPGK

Row | Binder | Ki [1] | Ki [2]
1 | B1 | 1 nM | 32.3 nM
2 | B2 | 0.7 nM | 56.5 nM
3 | B3 | 0.031 nM | 1 nM
4 | B4 | 0.4 nM | 8.7 nM
5 | B5 | 0.049 nM | 0.8 nM
6 | B6 | 0.039 nM | 1.3 nM
7 | B7 | 0.8 nM | 18.5 nM
8 | B8 | 0.071 nM | 2.6 nM
9 | B9 | 0.2 nM | 4.8 nM
10 | B10 | 0.044 nM | 2.2 nM
11 | B11 | 0.063 nM | 2.8 nM
12 | B12 | 0.061 nM | 0.7 nM
13 | B13 | 0.066 nM | 2.7 nM
14 | B14 | 0.1 nM | 1.2 nM
15 | B15 | 0.065 nM | 0.7 nM
16 | B16 | 0.069 nM | 3.6 nM
17 | B17 | 0.092 nM | 1.4 nM
18 | B18 | 0.094 nM | 1.8 nM
19 | B19 | 0.3 nM | 2.6 nM
20 | B20 | 0.04 nM | 0.8 nM
